Assay results as given in patent US20130004432A1 (INSTITUT NATIONAL DE LA SANTE ET DE LA RECHERCHE MEDICALE, published 2013).

Target: T1, human B7H6 (human, UniProt Q68D85 25-454)
T1 construct: in the immunoblot and immunoprecipitation experiments it stood in cell lysates; residues 1-24 are not expressly called a signal peptide; also called P815.B7H6; P815.B7-H6
T1 sequence: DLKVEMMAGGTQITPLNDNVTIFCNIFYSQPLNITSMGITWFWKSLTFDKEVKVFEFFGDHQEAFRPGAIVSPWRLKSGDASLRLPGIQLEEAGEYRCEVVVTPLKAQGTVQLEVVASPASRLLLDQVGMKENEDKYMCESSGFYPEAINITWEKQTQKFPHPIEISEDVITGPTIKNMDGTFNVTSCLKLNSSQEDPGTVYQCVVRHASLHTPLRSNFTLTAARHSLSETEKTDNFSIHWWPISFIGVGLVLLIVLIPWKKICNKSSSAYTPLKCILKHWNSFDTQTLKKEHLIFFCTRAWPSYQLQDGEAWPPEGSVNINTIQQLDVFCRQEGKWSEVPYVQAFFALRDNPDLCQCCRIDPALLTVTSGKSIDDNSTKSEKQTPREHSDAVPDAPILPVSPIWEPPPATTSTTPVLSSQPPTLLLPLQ
Test: FACS on P815.B7-H6 cells

binding result: binds
B1: NKp30Fc, soluble form of human NKp30 consisting of the extracellular domain of human NKp30 with a C-terminal Fc fusion (Fc fusion, UniProt O14931 19-135, looked up)
chain: LWVSQPPEIRTLEGSSAFLPCSFNASQGRLAIGSVTWFRDEVVPGKEVRNGTPEFRGRLAPLASSRFLHDHQAELHIRDVRGHDASIYVCRVEVLGLGVGTGNGTRLVVEKEHPQLG
notes: extracellular domain; not shown: C-terminal Fc
